Results on one molecule are retold here after publication PMC4605308 (Nucleic Acids Research, 2015).

In the experiment the target is T1, hexahistidine-tagged ubiquitin (the ubiquitin part of the Rad6^iso∼Ub conjugate) (human, UniProt P0CG48 1-76, C-terminus linked to K88 of Rad6 C88K via an isopeptide linkage).
T1 construct: ubiquitin, human; The final model holds two additional N-terminal residues from the plasmid vector; also called His6-Ub; Ub-His6; source: in the crystal conjugated to Rad6^C88K
As to the kind of experiment: crystal structure; Rad6^iso∼Ub conjugate; sitting drop vapor diffusion at 20°C, 24% PEG 300, 50 mM sodium acetate, pH 5.4; one conjugate in the asymmetric unit, contacts between conjugates in the crystal. The note with it: both partners purified.

B1: Rad6 C88K (the Rad6 part of the Rad6^iso∼Ub conjugate) (enzyme, Saccharomyces cerevisiae, UniProt P06104 1-172, looked up)
chain: MSTPARRRLMRDFKRMKEDAPPGVSASPLPDNVMVWNAMIIGPADTPYEDGTFRLLLEFDEEYPNKPPHVKFLSEMFHPNVYANGEIKLDILQNRWTPTYDVASILTSIQSLFNDPNPASPANVEAATLFKDHKSQYVKRVKETVEKSWEDDMDDMDDDDDDDDDDDDDEAD
modifications: lysine at position 88 linked to the ubiquitin C-terminus via an isopeptide linkage
notes: Rad6, Saccharomyces cerevisiae, with C88K; Written on its own for the non-covalent contact between Rad6 of one conjugate and ubiquitin of another in the crystal; source: E. coli Rosetta2 DE3 pLysS, purified; in the crystal conjugated to His6-Ub; not shown: MBP, N-terminal, cleaved; His6, N-terminal, cleaved
Turning to B1, the binding result is reported as “binds”.
